Consider one molecule from publication PMC12561191.

The test addresses BAX, the ligand protein coupled on the SPR chip, Q07812. Nature of the test: SPR. The note with it: natural protein; chains chain; remark: other sources report otherwise.

Chain of BAX, the ligand protein coupled on the SPR chip, Q07812 (Q07812 whole entry): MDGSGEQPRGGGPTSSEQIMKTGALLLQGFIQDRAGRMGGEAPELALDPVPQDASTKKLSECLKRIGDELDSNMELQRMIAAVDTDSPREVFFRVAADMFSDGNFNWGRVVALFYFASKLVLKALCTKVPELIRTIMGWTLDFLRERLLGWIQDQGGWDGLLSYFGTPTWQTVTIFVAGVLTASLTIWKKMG

B1: recombinant human MANF (rhMANF) protein, P55145 25-182 (protein)
chain: LRPGDCEVCISYLGRFYQDLKDRDVTFSPATIENELIKFCREARGKENRLCYYIGATDDAATKIINEVSKPLAHHIPVEKICEKLKKKDSQICELKYDKQIDLSTVDLKKLRVKELKKILDDWGETCKGCAEKSDYIRKINELMPKYAPKAASARTDL
For orientation: Kd means the constant that tells how readily two partners part at equilibrium. Low readings indicate a tighter complex, high ones a looser complex. As to B1, the Kd worked out at 11.3 µM.
